Assays:
[1] = test system: MMP9 protease cleavable linker PLGLAG, synthetic peptide fluorogenic probe
[2] = test system: Thrb protease cleavable linker LVPRGSG, synthetic peptide fluorogenic probe
[3] = test system: GzmB protease cleavable linker IEFDSG, synthetic peptide fluorogenic probe
[4] = test system: Thrb substrate peptide (candidate 1) LVSPRSG, fluorogenic peptide

Substance | cleavage of synthetic peptide fluorogenic probe (non-corresponding pair: not cleaved) [1] | cleavage of synthetic peptide fluorogenic probe (non-corresponding pair: not cleaved) [2] | cleavage of synthetic peptide fluorogenic probe (corresponding pair: cleaved) [3] | cleavage activity in fluorogenic assay [4] | cleavage of synthetic peptide fluorogenic probe (corresponding pair: cleaved) [2] | cleavage of synthetic peptide fluorogenic probe (non-corresponding pair: not cleaved) [3] | cleavage of synthetic peptide fluorogenic probe (corresponding pair: cleaved) [1]
Granzyme B (GzmB) protease | specific cleavage was shown by only the corresponding proteases | specific cleavage was shown by only the corresponding proteases | specific cleavage was shown by only the corresponding proteases | – | – | – | –
Thrombin (Thrb) protease | specific cleavage was shown by only the corresponding proteases | – | – | showed higher cleavage activity than the original Thrb cleavable sequence design (LVPRGSG (SEQ ID NO: 23)) | specific cleavage was shown by only the corresponding proteases | specific cleavage was shown by only the corresponding proteases | –
matrix metallopeptidase 9 (MMP9) | – | specific cleavage was shown by only the corresponding proteases | – | – | – | specific cleavage was shown by only the corresponding proteases | specific cleavage was shown by only the corresponding proteases
